Data from paper PMC6502868, “Architecture of Saccharomyces cerevisiae SAGA complex” (Cell Discovery, 2019).
Blank lines part the entries; values can stand above or below the binder they belong to.

Legend:
[1] = target: T1, Spt7 (S. cerevisiae, UniProt P35177 1-1332); test: cross-linking; chemical cross-linking of proteins coupled with mass spectrometry (CXMS) on the purified native SAGA complex; 139 unique inter- and 184 unique intra-subunit cross-linking pairs; details: both partners purified
T1 construct: Spt7, S. cerevisiae, second largest SAGA subunit (SPT module); source: endogenous, in the native SAGA complex purified from fermented S. cerevisiae cells
T1 sequence (looked up): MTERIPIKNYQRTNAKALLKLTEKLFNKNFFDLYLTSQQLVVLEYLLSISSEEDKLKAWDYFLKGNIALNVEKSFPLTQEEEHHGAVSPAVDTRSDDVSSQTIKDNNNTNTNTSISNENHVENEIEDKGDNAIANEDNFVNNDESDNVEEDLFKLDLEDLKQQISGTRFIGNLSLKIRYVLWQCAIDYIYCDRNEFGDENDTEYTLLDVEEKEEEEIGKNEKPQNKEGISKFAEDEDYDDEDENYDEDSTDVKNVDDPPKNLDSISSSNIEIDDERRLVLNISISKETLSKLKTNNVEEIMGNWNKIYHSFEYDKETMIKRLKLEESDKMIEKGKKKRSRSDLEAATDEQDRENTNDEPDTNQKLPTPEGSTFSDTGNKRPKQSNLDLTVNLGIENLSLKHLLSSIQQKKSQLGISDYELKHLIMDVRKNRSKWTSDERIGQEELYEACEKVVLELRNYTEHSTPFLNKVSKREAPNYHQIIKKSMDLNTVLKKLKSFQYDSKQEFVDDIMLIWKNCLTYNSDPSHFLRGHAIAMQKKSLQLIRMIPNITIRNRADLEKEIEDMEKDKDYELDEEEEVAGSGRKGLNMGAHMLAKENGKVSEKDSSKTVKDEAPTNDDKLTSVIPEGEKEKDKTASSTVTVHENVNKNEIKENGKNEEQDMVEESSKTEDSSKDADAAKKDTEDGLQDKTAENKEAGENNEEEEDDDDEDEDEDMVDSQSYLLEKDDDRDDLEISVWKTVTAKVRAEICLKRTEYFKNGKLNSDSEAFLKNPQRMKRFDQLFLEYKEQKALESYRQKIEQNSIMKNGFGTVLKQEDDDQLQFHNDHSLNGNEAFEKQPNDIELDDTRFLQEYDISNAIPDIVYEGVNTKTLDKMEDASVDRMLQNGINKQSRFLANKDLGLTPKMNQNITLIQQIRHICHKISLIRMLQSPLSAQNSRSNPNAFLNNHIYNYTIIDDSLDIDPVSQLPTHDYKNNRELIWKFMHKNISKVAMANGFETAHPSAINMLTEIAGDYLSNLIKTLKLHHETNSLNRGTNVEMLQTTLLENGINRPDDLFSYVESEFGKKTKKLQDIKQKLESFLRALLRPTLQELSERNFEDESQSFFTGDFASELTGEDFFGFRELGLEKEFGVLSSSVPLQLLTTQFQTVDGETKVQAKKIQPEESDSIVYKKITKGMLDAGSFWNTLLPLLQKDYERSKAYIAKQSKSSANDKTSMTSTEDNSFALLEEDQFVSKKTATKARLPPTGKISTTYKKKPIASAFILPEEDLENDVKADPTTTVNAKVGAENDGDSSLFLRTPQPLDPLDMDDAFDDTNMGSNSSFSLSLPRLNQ

[2] = target: T2, Tra1 (S. cerevisiae, UniProt P38811 1-3744); test: as above; details: both partners purified
T2 construct: Tra1, S. cerevisiae, largest SAGA subunit (SPT module), 3744 residues as printed; Endogenous subunit; Purification methods and any tag are in the Supplementary Materials; also called Tra1_(SAGA); lobe A; source: endogenous, in the native SAGA complex purified from fermented S. cerevisiae cells
T2 sequence (P38811 whole entry): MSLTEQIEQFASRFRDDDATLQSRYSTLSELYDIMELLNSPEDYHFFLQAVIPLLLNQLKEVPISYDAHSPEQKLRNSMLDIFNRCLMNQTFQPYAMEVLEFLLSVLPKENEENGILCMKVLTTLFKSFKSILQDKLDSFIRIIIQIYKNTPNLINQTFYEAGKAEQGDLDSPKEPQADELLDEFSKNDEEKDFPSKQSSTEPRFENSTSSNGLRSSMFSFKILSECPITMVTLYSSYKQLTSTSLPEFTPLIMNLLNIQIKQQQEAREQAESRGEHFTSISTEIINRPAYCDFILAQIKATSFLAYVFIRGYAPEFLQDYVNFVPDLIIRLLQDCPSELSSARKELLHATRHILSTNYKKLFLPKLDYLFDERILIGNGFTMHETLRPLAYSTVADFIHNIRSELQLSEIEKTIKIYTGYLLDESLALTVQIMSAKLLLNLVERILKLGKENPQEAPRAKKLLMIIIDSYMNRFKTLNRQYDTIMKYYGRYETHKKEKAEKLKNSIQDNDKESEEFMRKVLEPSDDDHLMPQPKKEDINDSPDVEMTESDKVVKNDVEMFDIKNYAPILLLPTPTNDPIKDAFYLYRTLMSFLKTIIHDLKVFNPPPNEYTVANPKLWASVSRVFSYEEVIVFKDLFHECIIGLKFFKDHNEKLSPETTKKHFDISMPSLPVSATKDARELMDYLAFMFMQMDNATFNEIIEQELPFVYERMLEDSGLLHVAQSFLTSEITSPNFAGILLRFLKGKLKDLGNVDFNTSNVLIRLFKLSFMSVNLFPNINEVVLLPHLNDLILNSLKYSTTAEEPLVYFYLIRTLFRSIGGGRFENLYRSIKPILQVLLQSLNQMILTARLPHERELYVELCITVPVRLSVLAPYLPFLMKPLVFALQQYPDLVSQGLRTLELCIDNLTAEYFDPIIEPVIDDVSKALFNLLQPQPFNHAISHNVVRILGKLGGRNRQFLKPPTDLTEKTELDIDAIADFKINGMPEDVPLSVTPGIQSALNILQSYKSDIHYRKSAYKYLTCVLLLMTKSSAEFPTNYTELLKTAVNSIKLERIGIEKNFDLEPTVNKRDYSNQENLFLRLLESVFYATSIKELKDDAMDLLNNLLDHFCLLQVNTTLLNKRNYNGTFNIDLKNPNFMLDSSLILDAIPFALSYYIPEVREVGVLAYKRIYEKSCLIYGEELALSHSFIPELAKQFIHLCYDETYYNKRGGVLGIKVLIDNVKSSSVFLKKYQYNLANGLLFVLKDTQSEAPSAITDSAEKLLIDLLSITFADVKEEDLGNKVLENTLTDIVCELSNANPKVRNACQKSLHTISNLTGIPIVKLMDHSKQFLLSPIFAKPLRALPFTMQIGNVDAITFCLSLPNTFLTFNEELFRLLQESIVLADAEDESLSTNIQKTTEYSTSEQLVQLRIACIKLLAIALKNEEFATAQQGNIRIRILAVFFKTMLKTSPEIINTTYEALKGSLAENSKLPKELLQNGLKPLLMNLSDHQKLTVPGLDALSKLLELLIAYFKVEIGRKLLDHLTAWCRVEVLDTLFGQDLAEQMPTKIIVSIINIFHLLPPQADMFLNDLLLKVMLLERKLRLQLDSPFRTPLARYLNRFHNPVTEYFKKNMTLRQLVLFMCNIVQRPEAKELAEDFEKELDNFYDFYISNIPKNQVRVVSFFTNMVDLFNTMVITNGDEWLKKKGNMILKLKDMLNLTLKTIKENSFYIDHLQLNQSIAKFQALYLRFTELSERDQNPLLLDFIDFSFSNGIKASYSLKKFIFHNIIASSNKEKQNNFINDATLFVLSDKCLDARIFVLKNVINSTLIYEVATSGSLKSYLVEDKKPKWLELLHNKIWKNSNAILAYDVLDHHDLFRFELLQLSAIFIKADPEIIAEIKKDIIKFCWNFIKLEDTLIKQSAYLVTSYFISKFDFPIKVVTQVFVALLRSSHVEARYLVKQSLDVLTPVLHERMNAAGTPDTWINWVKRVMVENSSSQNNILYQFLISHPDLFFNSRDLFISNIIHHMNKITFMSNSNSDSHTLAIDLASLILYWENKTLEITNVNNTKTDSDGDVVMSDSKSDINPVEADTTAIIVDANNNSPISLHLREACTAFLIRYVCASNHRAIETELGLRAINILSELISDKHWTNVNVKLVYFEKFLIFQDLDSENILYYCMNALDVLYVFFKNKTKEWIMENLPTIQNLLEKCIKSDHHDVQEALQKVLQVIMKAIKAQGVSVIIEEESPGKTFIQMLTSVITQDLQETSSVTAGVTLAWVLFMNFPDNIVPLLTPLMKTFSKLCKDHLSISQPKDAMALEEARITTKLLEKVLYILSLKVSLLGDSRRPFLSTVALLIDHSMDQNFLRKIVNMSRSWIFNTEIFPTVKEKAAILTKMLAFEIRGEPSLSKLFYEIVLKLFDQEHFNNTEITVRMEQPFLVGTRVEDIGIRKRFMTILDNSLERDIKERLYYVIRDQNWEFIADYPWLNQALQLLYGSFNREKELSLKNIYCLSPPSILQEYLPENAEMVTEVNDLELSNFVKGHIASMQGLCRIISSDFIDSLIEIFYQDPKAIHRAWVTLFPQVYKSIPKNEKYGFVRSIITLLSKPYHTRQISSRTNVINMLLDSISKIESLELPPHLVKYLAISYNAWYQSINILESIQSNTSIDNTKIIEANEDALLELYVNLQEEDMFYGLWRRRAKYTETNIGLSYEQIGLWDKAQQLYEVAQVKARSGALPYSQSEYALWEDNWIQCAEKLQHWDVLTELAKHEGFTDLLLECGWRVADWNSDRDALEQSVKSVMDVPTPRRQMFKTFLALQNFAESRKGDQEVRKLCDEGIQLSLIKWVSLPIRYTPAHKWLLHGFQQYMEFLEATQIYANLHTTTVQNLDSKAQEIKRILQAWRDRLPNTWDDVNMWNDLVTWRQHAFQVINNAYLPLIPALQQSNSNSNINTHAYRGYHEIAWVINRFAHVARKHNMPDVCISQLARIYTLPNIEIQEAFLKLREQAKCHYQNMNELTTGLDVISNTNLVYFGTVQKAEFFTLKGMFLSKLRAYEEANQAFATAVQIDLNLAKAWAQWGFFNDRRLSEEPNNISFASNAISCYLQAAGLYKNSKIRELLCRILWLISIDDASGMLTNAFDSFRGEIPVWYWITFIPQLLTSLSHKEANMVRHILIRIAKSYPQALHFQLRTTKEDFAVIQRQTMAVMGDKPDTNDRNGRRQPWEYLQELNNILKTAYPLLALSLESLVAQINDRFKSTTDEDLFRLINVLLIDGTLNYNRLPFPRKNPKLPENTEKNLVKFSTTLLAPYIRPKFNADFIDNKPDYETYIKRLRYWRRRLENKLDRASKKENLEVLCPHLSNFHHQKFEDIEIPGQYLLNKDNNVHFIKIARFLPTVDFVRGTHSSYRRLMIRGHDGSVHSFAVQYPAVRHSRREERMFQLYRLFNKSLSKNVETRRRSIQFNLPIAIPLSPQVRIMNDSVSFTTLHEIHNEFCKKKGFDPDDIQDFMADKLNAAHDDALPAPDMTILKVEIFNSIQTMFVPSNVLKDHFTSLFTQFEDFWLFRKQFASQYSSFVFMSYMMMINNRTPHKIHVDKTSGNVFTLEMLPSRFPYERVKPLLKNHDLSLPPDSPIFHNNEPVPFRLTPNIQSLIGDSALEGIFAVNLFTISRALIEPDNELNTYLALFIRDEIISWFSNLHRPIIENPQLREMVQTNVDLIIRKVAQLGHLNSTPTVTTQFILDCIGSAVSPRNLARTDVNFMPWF

B1: Spt8 (natural protein, S. cerevisiae, UniProt P38915 1-602, looked up)
chain: MDEVDDILINNQVVDDEEDDEEMLSGLENDSKQDLEGNDDGGEDEEDDDDDDEDDDDDEDEREDDDEQEDDDGEDDAARMDKTATPTNEHQHDEQKAAAAGAGGAGDSGDAVTKIGSEDVKLSDVDGGVGSREASSSTHEASANGEVYEYYKHMLNAAQIADSYNIYPTAAIPIQTHVNALAVSRGLKYLFLGGSDGYIRKYDLLNTLEGKLSLTILQKHSLAESIQNAGILQSYWENEIPQKKSEMKLSANKTDYEPKVSPVHSLEVQSECLFILSGLQNGGITMQGVRYMEGSIAHYFKGRNGHTQIVNILRLNGQEDRFLSGSWDKRLLEWDLQTGDIVNEFKKSRSELSSLEMRPLYSSVDVSGNVNSGKENENADDDMDSLFGDEDEDEKQDAGNEPVETGDGSNGEENKEQISEESLNIVYDESVFMTSGLNGSVHIWDRRMTQSPALSLERGAGVPPWCLSACWGVDGDHVYAGRRNACVEQFDLKMPSKPIHNLKLPSISGPVSCVKAMPNNKHLLCASRDNIRLYNVEIAVDASNSTTKSSKVPFLIVPGHHGGIISNLYLDPTSRFIISTSGNRGWQGNSTDTTLIYDIDLE
notes: Spt8, S. cerevisiae, SAGA subunit (SPT module), ~66.2 kDa as printed; source: endogenous, in the native SAGA complex purified from fermented S. cerevisiae cells
binding result [1]: binds

B2: Ada3 (natural protein, S. cerevisiae, UniProt P32494 1-702, looked up)
chain: MPRHGRRGKLPKGEKLPKKEGGDNTPSKLLSSMLKTLDLTFERDIGMLNGKSVRSIPNKKTLLELQSQLDSLNEILGTIARGDQETIEALRKIRDSKNEKQANDEKQETSNADGQHESSTATEETNIIDKGVQSPPKPPPSNEISGTIENDVESIKQAADNMAKEEINEDKDLQVHRDQPREKRPFDSETENRATENENTQRPDNKKQKIDVDKMENDPTVKNPKSEFVVSQTLPRAAAALGLFNEEGLESTGEDFLKKKYNVASYPTNDLKDLLPGELPDMDFSHPKPTNQIQFNTFLAFVENFFKDLSDDNLKFLKMKYIIPDSLQFDKTYDPEVNPFIIPKLGPLYTDVWFKDENDKNSAYKKPSPYSNDASTILPKKSANELDDNALESGSISCGPLLSRLLSAVLKDDNDKSELQSSKIIRDGGLPRTGGEDDIQSFRNNNNDTVDMTLSQENGPSVQTPDNDIDEEASFQAKLAENKGSNGGTTSTLPQQIGWITNGINLDYPTFEERLKRELKYVGIYMNLPKDENNPNSDDPDWVTGREDDEISAELRELQGTLKQVTKKNQKRKAQLIPLVERQLAWQEYSSILEDLDKQIDQAYVKRIRVPKKRKKHHTAASNNVNTGTTSQIAQQKAANSSLKSLLDKRQRWINKIGPLFDKPEIMKRIPNESVFKDMDQEEDEDEADVFAQNTNKDVELN
notes: Ada3, S. cerevisiae, SAGA subunit (HAT module); source: endogenous, in the native SAGA complex purified from fermented S. cerevisiae cells
binding result [1]: binds

B3: Taf6 (natural protein, S. cerevisiae, UniProt P53040 1-516, looked up)
chain: MSTQQQSYTIWSPQDTVKDVAESLGLENINDDVLKALAMDVEYRILEIIEQAVKFKRHSKRDVLTTDDVSKALRVLNVEPLYGYYDGSEVNKAVSFSKVNTSGGQSVYYLDEEEVDFDRLINEPLPQVPRLPTFTTHWLAVEGVQPAIIQNPNLNDIRVSQPPFIRGAIVTALNDNSLQTPVTSTTASASVTDTGASQHLSNVKPGQNTEVKPLVKHVLSKELQIYFNKVISTLTAKSQADEAAQHMKQAALTSLRTDSGLHQLVPYFIQFIAEQITQNLSDLQLLTTILEMIYSLLSNTSIFLDPYIHSLMPSILTLLLAKKLGGSPKDDSPQEIHEFLERTNALRDFAASLLDYVLKKFPQAYKSLKPRVTRTLLKTFLDINRVFGTYYGCLKGVSVLEGESIRFFLGNLNNWARLVFNESGITLDNIEEHLNDDSNPTRTKFTKEETQILVDTVISALLVLKKDLPDLYEGKGEKVTDEDKEKLLERCGVTIGFHILKRDDAKELISAIFFGE
notes: Taf6, S. cerevisiae, SAGA subunit (TAF module), ~58 kDa as printed; source: endogenous, in the native SAGA complex purified from fermented S. cerevisiae cells
binding result [1]: binds

B4: Taf9 (natural protein, S. cerevisiae, UniProt Q05027 1-157, looked up)
chain: MNGGGKNVLNKNSVGSVSEVGPDSTQEETPRDVRLLHLLLASQSIHQYEDQVPLQLMDFAHRYTQGVLKDALVYNDYAGSGNSAGSGLGVEDIRLAIAARTQYQFKPTAPKELMLQLAAERNKKALPQVMGTWGVRLPPEKYCLTAKEWDLEDPKSM
notes: Taf9, S. cerevisiae, SAGA subunit (TAF module); source: endogenous, in the native SAGA complex purified from fermented S. cerevisiae cells
binding result [2]: binds

B5: Taf5 (natural protein, S. cerevisiae, UniProt P38129 1-798, looked up)
chain: MSQKQSTNQNQNGTHQPQPVKNQRTNNAAGANSGQQPQQQSQGQSQQQGRSNGPFSASDLNRIVLEYLNKKGYHRTEAMLRAESGRTLTPQNKQSPANTKTGKFPEQSSIPPNPGKTAKPISNPTNLSSKRDAEGGIVSSGRLEGLNAPENYIRAYSMLKNWVDSSLEIYKPELSYIMYPIFIYLFLNLVAKNPVYARRFFDRFSPDFKDFHGSEINRLFSVNSIDHIKENEVASAFQSHKYRITMSKTTLNLLLYFLNENESIGGSLIISVINQHLDPNIVESVTAREKLADGIKVLSDSENGNGKQNLEMNSVPVKLGPFPKDEEFVKEIETELKIKDDQEKQLNQQTAGDNYSGANNRTLLQEYKAMNNEKFKDNTGDDDKDKIKDKIAKDEEKKESELKVDGEKKDSNLSSPARDILPLPPKTALDLKLEIQKVKESRDAIKLDNLQLALPSVCMYTFQNTNKDMSCLDFSDDCRIAAAGFQDSYIKIWSLDGSSLNNPNIALNNNDKDEDPTCKTLVGHSGTVYSTSFSPDNKYLLSGSEDKTVRLWSMDTHTALVSYKGHNHPVWDVSFSPLGHYFATASHDQTARLWSCDHIYPLRIFAGHLNDVDCVSFHPNGCYVFTGSSDKTCRMWDVSTGDSVRLFLGHTAPVISIAVCPDGRWLSTGSEDGIINVWDIGTGKRLKQMRGHGKNAIYSLSYSKEGNVLISGGADHTVRVWDLKKATTEPSAEPDEPFIGYLGDVTASINQDIKEYGRRRTVIPTSDLVASFYTKKTPVFKVKFSRSNLALAGGAFRP
notes: Taf5, S. cerevisiae, SAGA subunit (TAF module); source: endogenous, in the native SAGA complex purified from fermented S. cerevisiae cells
binding result [1]: binds

B6: Ada1 (natural protein, S. cerevisiae, UniProt Q12060 1-488, looked up)
chain: MSAIQSPAPKPLQPTYPAASPASTNAYMKPGLIGSPAVSNHTEPNNGNNETAEPQGPNQRIDLGAMIEELTSLLGKESWTKYAQIISLFILGKLSRKELSNELELVFSPSAASLEKSNTNHHHSLVRLHNQLLLGIFANSLRENPLGRNGNESSWGFGNGSNNPNNKLKRINKHNSQIEVYKKIVMSLPLNDRNRLKMITKEAGKRGFIFCSVFQARLNNIPKIPIVTNPESLKRVKSNNLKTPLEWSQDIMNGFNVPLASESHSLPDTDSFYLRMVGIAREHGLVGTVDARCVELISLALDQYLKNIIEFTIDTVRYRRKKYSDYYDLNESGLYKSVSEMAADKRDAKIKQLDDDKNEDECADEAKSINNGNNSSKDDIGDISMSSITKAGEAVNEELHENRTISLTNEDIYDSLSIFPNLVEPSGSYYALTNLGLVNDDELVDMKSNIDDLPDFLNEKPTFTPLDERNVGTRHELNWLIKGILTED
notes: Ada1, S. cerevisiae, SAGA subunit (SPT module); source: endogenous, in the native SAGA complex purified from fermented S. cerevisiae cells
binding result [2]: binds

Next, values leading:

binding result [1]: binds
B7: Ada2 (natural protein, S. cerevisiae, UniProt Q02336 1-434, looked up)
chain: MSNKFHCDVCSADCTNRVRVSCAICPEYDLCVPCFSQGSYTGKHRPYHDYRIIETNSYPILCPDWGADEELQLIKGAQTLGLGNWQDIADHIGSRGKEEVKEHYLKYYLESKYYPIPDITQNIHVPQDEFLEQRRHRIESFRERPLEPPRKPMASVPSCHEVQGFMPGRLEFETEFENEAEGPVKDMVFEPDDQPLDIELKFAILDIYNSRLTTRAEKKRLLFENHLMDYRKLQAIDKKRSKEAKELYNRIKPFARVMTAQDFEEFSKDILEELHCRARIQQLQEWRSNGLTTLEAGLKYERDKQARISSFEKFGASTAASLSEGNSRYRSNSAHRSNAEYSQNYSENGGRKKNMTISDIQHAPDYALLSNDEQQLCIQLKILPKPYLVLKEVMFRELLKTGGNLSKSACRELLNIDPIKANRIYDFFQSQNWM
notes: Ada2, S. cerevisiae, SAGA subunit (HAT module); source: endogenous, in the native SAGA complex purified from fermented S. cerevisiae cells

binding result [2]: binds
B8: Spt20 (natural protein, S. cerevisiae, UniProt P50875 1-604, looked up)
chain: MSANSPTGNDPHVFGIPVNATPSNMGSPGSPVNVPPPMNPAVANVNHPVMRTNSNSNANEGTRTLTREQIQQLQQRQRLLLQQRLLEQQRKQQALQNYEAQFYQMLMTLNKRPKRLYNFVEDADSILKKYEQYLHSFEFHIYENNYKICAPANSRLQQQQKQPELTSDGLILTKNNETLKEFLEYVARGRIPDAIMEVLRDCNIQFYEGNLILQVYDHTNTVDVTPKENKPNLNSSSSPSNNNSTQDNSKIQQPSEPNSGVANTGANTANKKASFKRPRVYRTLLKPNDLTTYYDMMSYADNARFSDSIYQQFESEILTLTKRNLSLSVPLNPYEHRDMLEETAFSEPHWDSEKKSFIHEHRAESTREGTKGVVGHIEERDEFPQHSSNYEQLMLIMNERTTTITNSTFAVSLTKNAMEIASSSSNGVRGASSSTSNSASNTRNNSLANGNQVALAAAAAAAAVGSTMGNDNNQFSRLKFIEQWRINKEKRKQQALSANINPTPFNARISMTAPLTPQQQLLQRQQQALEQQQNGGAMKNANKRSGNNATSNNNNNNNNLDKPKVKRPRKNAKKSESGTPAPKKKRMTKKKQSASSTPSSTTMS
notes: Spt20, S. cerevisiae, SAGA subunit (SPT module); source: endogenous, in the native SAGA complex purified from fermented S. cerevisiae cells
